The data set is described as follows: self-splicing fitness, log relative to wild type (ln ratio); higher = more splicing; Tetrahymena group I intron in knt gene, E. coli kanamycin selection, DiMSum; sequences stand for … in CUCUCU…GGAGGGAAAAGUUAUCAGGCAUGCACCUGGUAGCUAGUCUUUAAACCAAUAGAUUGCAUCGGUUUAAAAGGCAAGACCGUCAAAUUGCGGGAAAGGGGUCAACAGCCGUUCAGUACCAAGUCUCAGGGGAAACUUUGAGAUGGCCUUGCAAAGGGUAUGGUAAUAAGCUGACGGACAUGGUCCUAACCACGCAGCCAAGUCCUAAGUCAACAGAUCUUCUGUUGAUAUGGAUGCAGUUCACAGACUAAAUGUCGGUCGGGGAAGAUGUAUUCUUCUCAUAAGAUAUAGUCGGACCUCUCCUUAAUGGGAGCUAGCGGAUGAAGUGAUGCAACACUGGAGCCGCUGGGAACUAAUUUGUAUGCGAAAGUAUAUUGAUUAGUUUUGGAGUACUCGUGGUCG
Put shortly:
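Six replicate transformations of E. coli BL21(DE3) with a pET-22b(+) library were grown overnight at 37°C or 30°C. The library randomised all eight P1ex-region intron nucleotides, the intron lying in the knt kanamycin-resistance gene, and plates were LB agar with or without 25 μg/mL kanamycin plus 100 μg/mL carbenicillin, 50 μM IPTG and 0.2% rhamnose. Pooled colonies were amplicon-sequenced on an Illumina HiSeq 2500, and fitness is the DiMSum error-weighted combination of wild-type-normalised replicate fold changes, kanamycin versus none.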

± gives the uncertainty stated by the source.

For the sequence CUCCAGCAAUAUUACGUCAU, the “self-splicing fitness (ln)” value (30 °C) was -2.15 ± 0.13 and the “self-splicing fitness (ln)” value (37 °C) is -2.84 ± 0.24.
In the same order, the values of UUUCAGCAAUAUUACGGAGG are -1.53 ± 0.17 and -0.401 ± 0.18.
The like results for GCUGAGCAAUAUUACGGAAG were, in that order, -2.41 ± 0.24 and -0.395 ± 0.17.
GUGCAGCAAUAUUACGUCCG: the “self-splicing fitness (ln)” value was -3 ± 0.22 (30 °C) and -0.37 ± 0.18 (37 °C).
The like results for UUUCAGCAAUAUUACGCAUU were, in that order, -1.93 ± 0.14 and -1.08 ± 0.11.
For the sequence GGUAAGCAAUAUUACGUACC, the “self-splicing fitness (ln)” value (30 °C) is -3.79 ± 0.44.
With CCAGAGCAAUAUUACGGUUA, the “self-splicing fitness (ln)” value is -2.7 ± 0.18 (30 °C) and -2.01 ± 0.25 (37 °C).
Take UAGCAGCAAUAUUACGAGUG: the “self-splicing fitness (ln)” value by setting is: (30 °C) -1.02 ± 0.075; (37 °C) -0.131 ± 0.075.
The like results for UCAGAGCAAUAUUACGAAUG were, in that order, -1.78 ± 0.24 and -2.76 ± 0.38.
The like results for GCGCAGCAAUAUUACGUGUC were, in that order, -2.71 ± 0.19 and -2.83 ± 0.24.
As to GUCCAGCAAUAUUACGGUGC, the “self-splicing fitness (ln)” value reads like this: (30 °C) -0.903 ± 0.059; (37 °C) -0.726 ± 0.071.
The like results for CAUUAGCAAUAUUACGUAAA were, in that order, -2.93 ± 0.15 and -1.34 ± 0.15.
In the same order, the values of AACAAGCAAUAUUACGAGUA are -1.5 ± 0.078 and -0.465 ± 0.08.
In the same order, the values of UCAAAGCAAUAUUACGCUCA are -0.864 ± 0.15 and -0.428 ± 0.19.
Turning to UAACAGCAAUAUUACGGUUU, the “self-splicing fitness (ln)” value (30 °C) was -1.14 ± 0.05 and the “self-splicing fitness (ln)” value (37 °C) was -0.621 ± 0.063.
As for UCUGAGCAAUAUUACGCUAC, the “self-splicing fitness (ln)” value was -3.66 ± 0.3 (30 °C) and -3.09 ± 0.47 (37 °C).
The like results for CGACAGCAAUAUUACGGUAG were, in that order, -1.47 ± 0.069 and -0.946 ± 0.069.
The like results for UUGUAGCAAUAUUACGCCCU were, in that order, -0.23 ± 0.24 and -0.0821 ± 0.2.
The like results for AUUCAGCAAUAUUACGACUA were, in that order, -0.646 ± 0.12 and -0.106 ± 0.12.
CUAAAGCAAUAUUACGAAUC: the “self-splicing fitness (ln)” value was -4.03 ± 0.14 (30 °C) and -2.46 ± 0.16 (37 °C).
For AUGCAGCAAUAUUACGUCUU, the “self-splicing fitness (ln)” value reads like this: (30 °C) 0.0107 ± 0.076; (37 °C) 0.303 ± 0.082.
The like results for UGUAAGCAAUAUUACGGGAG were, in that order, -3.47 ± 0.24 and -1.94 ± 0.25.
The like results for GAUAAGCAAUAUUACGACAU were, in that order, -0.4 ± 0.012 and 0.0172 ± 0.032.
In the same order, the values of AACGAGCAAUAUUACGCACG are -2.8 ± 0.38 and -0.837 ± 0.25.
For CGCAAGCAAUAUUACGGAGC, the “self-splicing fitness (ln)” value (30 °C) was -2.49 ± 0.17 and the “self-splicing fitness (ln)” value (37 °C) is -2.24 ± 0.24.
As for CUAUAGCAAUAUUACGUCAA, the “self-splicing fitness (ln)” value is -3.16 ± 0.2 (30 °C) and -2.7 ± 0.23 (37 °C).
In the same order, the values of AAAUAGCAAUAUUACGGUUA are -0.483 ± 0.077 and -0.546 ± 0.08.
In the same order, the values of CUUCAGCAAUAUUACGAAGA are -3.72 ± 0.4 and -2.33 ± 0.21.
In the same order, the values of UCAAAGCAAUAUUACGUCGG are -0.93 ± 0.056 and -0.055 ± 0.079.
UCCUAGCAAUAUUACGCGCU: the “self-splicing fitness (ln)” value runs as follows: (30 °C) -2.24 ± 0.14; (37 °C) -2.73 ± 0.23.
For the sequence CAAGAGCAAUAUUACGCCUC, the “self-splicing fitness (ln)” value (30 °C) is -1.95 ± 0.33.
As to GACUAGCAAUAUUACGAACC, the “self-splicing fitness (ln)” value (30 °C) was -1.64 ± 0.17 and the “self-splicing fitness (ln)” value (37 °C) was -0.0491 ± 0.19.
The like results for CCCGAGCAAUAUUACGCCGC were, in that order, -3.53 ± 0.43 and -1.59 ± 0.47.
The like results for UGAAAGCAAUAUUACGGCUA were, in that order, 0.376 ± 0.092 and 0.259 ± 0.11.
In the same order, the values of AUGCAGCAAUAUUACGCGCG are -0.941 ± 0.1 and -0.349 ± 0.1.
Regarding GGCCAGCAAUAUUACGUACG, the “self-splicing fitness (ln)” value is -1.8 ± 0.11 (30 °C) and -1.1 ± 0.12 (37 °C).
In the same order, the values of GCUCAGCAAUAUUACGGAUA are -1.34 ± 0.12 and -0.254 ± 0.1.
The like results for AGUUAGCAAUAUUACGGUUA were, in that order, -1.54 ± 0.12 and -0.607 ± 0.087.
The like results for CGGAAGCAAUAUUACGGCAC were, in that order, -2.4 ± 0.25 and -1.75 ± 0.38.
For the sequence UCGAAGCAAUAUUACGCUCU, the “self-splicing fitness (ln)” value (37 °C) is -1.36 ± 0.34.
GCAAAGCAAUAUUACGGAGG: the “self-splicing fitness (ln)” value is -1.9 ± 0.1 (30 °C) and -1.62 ± 0.14 (37 °C).
GCAGAGCAAUAUUACGGAUU: the “self-splicing fitness (ln)” value (30 °C) is -3.62 ± 0.3.
With UAGAAGCAAUAUUACGGCUC, the “self-splicing fitness (ln)” value (30 °C) was -2.6 ± 0.3 and the “self-splicing fitness (ln)” value (37 °C) is -0.946 ± 0.3.
The like results for UACGAGCAAUAUUACGGGGU were, in that order, -3.05 ± 0.14 and -2.28 ± 0.14.
The like results for ACAUAGCAAUAUUACGUGCA were, in that order, -0.639 ± 0.053 and 0.349 ± 0.063.
As for CACAAGCAAUAUUACGCUUU, the “self-splicing fitness (ln)” value was -4.46 ± 0.24 (30 °C) and -2.81 ± 0.17 (37 °C).
The like results for GGCAAGCAAUAUUACGUUGC were, in that order, -3.67 ± 0.37 and -2.42 ± 0.39.
The like results for GGACAGCAAUAUUACGGCAG were, in that order, -3.87 ± 0.14 and -2.45 ± 0.1.
The like results for CAGCAGCAAUAUUACGGGGC were, in that order, -3.66 ± 0.14 and -2.45 ± 0.15.
For the sequence CAUUAGCAAUAUUACGGGCC, the “self-splicing fitness (ln)” value (30 °C) was -2.71 ± 0.23 and the “self-splicing fitness (ln)” value (37 °C) is -2.95 ± 0.43.
Take UCAGAGCAAUAUUACGUGUG: the “self-splicing fitness (ln)” value reads like this: (30 °C) -2.67 ± 0.13; (37 °C) -2.53 ± 0.13.
Turning to GCCGAGCAAUAUUACGGGCG, the “self-splicing fitness (ln)” value is, setting by setting: (30 °C) -1.18 ± 0.17; (37 °C) -0.688 ± 0.18.
In the same order, the values of AAUUAGCAAUAUUACGCUCG are 0.0366 ± 0.13 and 0.217 ± 0.16.
The like results for CCCGAGCAAUAUUACGUAUG were, in that order, -4.9 ± 0.45 and -2 ± 0.19.
The like results for UCUCAGCAAUAUUACGACUU were, in that order, -1.63 ± 0.073 and -1.75 ± 0.11.
On to GCUUAGCAAUAUUACGCGCC, for which the “self-splicing fitness (ln)” value (30 °C) was -1.62 ± 0.45.
For GACGAGCAAUAUUACGGAGU, the “self-splicing fitness (ln)” value was -3.71 ± 0.35 (30 °C) and -2.49 ± 0.24 (37 °C).
In the case of UUAUAGCAAUAUUACGUCUC, the “self-splicing fitness (ln)” value by setting is: (30 °C) -3.25 ± 0.33; (37 °C) -2.13 ± 0.3.
Regarding AGAUAGCAAUAUUACGGCUU, the “self-splicing fitness (ln)” value was -0.346 ± 0.11 (30 °C) and -0.141 ± 0.097 (37 °C).
In the same order, the values of UACAAGCAAUAUUACGAAUU are -2.48 ± 0.16 and -2.99 ± 0.26.
The like results for AACGAGCAAUAUUACGCUGU were, in that order, -2.67 ± 0.45 and -2.99 ± 0.4.
In the same order, the values of GCCCAGCAAUAUUACGGCAU are -3.47 ± 0.13 and -1.01 ± 0.1.
On to AUUAAGCAAUAUUACGAUGG, for which the “self-splicing fitness (ln)” value (30 °C) was -3.96 ± 0.37 and the “self-splicing fitness (ln)” value (37 °C) was -1.94 ± 0.26.
UAUGAGCAAUAUUACGCUCC: the “self-splicing fitness (ln)” value (30 °C) was -1.47 ± 0.31.
Turning to CCGUAGCAAUAUUACGCCGA, the “self-splicing fitness (ln)” value reads like this: (30 °C) -2.64 ± 0.22; (37 °C) -1.99 ± 0.19.
In the case of ACUGAGCAAUAUUACGAAUC, the “self-splicing fitness (ln)” value (30 °C) was -3.54 ± 0.36 and the “self-splicing fitness (ln)” value (37 °C) was -2.55 ± 0.21.
In the same order, the values of UAUAAGCAAUAUUACGCGUU are -2.67 ± 0.14 and -0.931 ± 0.12.
The like results for UAUGAGCAAUAUUACGGGGG were, in that order, -3.16 ± 0.26 and -2.31 ± 0.29.
In the same order, the values of CGGCAGCAAUAUUACGUCGG are -1.42 ± 0.079 and -0.417 ± 0.098.
On to CGGUAGCAAUAUUACGACGA, for which the “self-splicing fitness (ln)” value by setting is: (30 °C) -1.46 ± 0.19; (37 °C) 0.22 ± 0.17.
The like results for CGCCAGCAAUAUUACGCUCA were, in that order, -0.656 ± 0.073 and 0.163 ± 0.083.
The like results for CGAAAGCAAUAUUACGCUUG were, in that order, -2.51 ± 0.087 and -2.15 ± 0.091.
In the same order, the values of GAUAAGCAAUAUUACGGUUC are -3.24 ± 0.43 and -2.5 ± 0.31.
Take GGCGAGCAAUAUUACGAUGC: the “self-splicing fitness (ln)” value (30 °C) was -1.04 ± 0.16 and the “self-splicing fitness (ln)” value (37 °C) is -1.43 ± 0.26.
Consider CCGGAGCAAUAUUACGGUCA, for which the “self-splicing fitness (ln)” value (30 °C) is -4.22 ± 0.47.
As to UUGCAGCAAUAUUACGUGCU, the “self-splicing fitness (ln)” value (30 °C) is -3.19 ± 0.22 and the “self-splicing fitness (ln)” value (37 °C) was -1.84 ± 0.22.
The like results for CCCUAGCAAUAUUACGGUCC were, in that order, -3.45 ± 0.22 and -1.51 ± 0.28.
